Reference: FireProtDB (doi:10.1021/bi00454a022)
Values joined by “and” are separate entries in the source; they are usually repeats but may differ in a detail not shown here. Equal values may be shown once.

Conditions: Bos taurus; pH 7; 25 °C; GdnHCl; CD; Sodium phosphate 20 mM; reversible: yes; whole UniProt chain shown

B1: Gamma-crystallin B wild type, P02526 (protein)
chain: MGKITFYEDRGFQGHCYECSSDCPNLQPYFSRCNSIRVDSGCWMLYERPNYQGHQYFLRRGDYPDYQQWMGFNDSIRSCRLIPQHTGTFRMRIYERDDFRGQMSEITDDCPSLQDRFHLTEVHSLNVLEGSWVLYEMPSYRGRQYLLRPGEYRRYLDWGAMNAKVGSLRRVMDFY
denaturant m value: 1.3 kcal/mol/M
unfolding free energy: 5.2 kcal/mol and 6.5 kcal/mol
